Assay results: patent US20110311553A1 (Boehringer Ingelheim, published 2011)
Residue numbers refer to the chain shown, from its start.

B1: Ab4994 IgG4_Pro (antibody, V domains shown)
VH: QVQLVESGGGLVQPGGSLRLSCAASGFTFSSYAMNWVRQAPGKGLEWVSAISYSGHLTGYADSVKGRFTISRDNSKNTLYLQMNSLRAEDTAVYYCARIQNDPMDVWGQGTLVTVSS
VL: DIELTQPPSVSVAPGQTARISCSGDNLGKKYVQWYQQKPGQAPVLVIYDDSNRPSGIPERFSGSNSGNTATLTISGTQAEDEADYYCSSWDVGSDGWVFGGGTKLTVLG
B2: Ab4999 IgG4_Pro (antibody, V domains shown)
VH: B1 VH with A50T, G55S, H56S, L57A, G59S
VL: DIELTQPPSVSVAPGQTARISCSGDNLGKKYVQWYQQKPGQAPVLVIYDDSNRPSGIPERFSGSNSGNTATLTISGTQAEDEADYYCQTWDYSSIRDETNVFGGGTKLTVLG
B3: Ab5005 IgG4_Pro (antibody, V domains shown)
VH: B1 VH with A50T, G55S, H56S, L57A, G59S
VL: DIELTQPPSVSVAPGQTARISCSGDNLGKKYVQWYQQKPGQAPVLVIYDDSNRPSGIPERFSGSNSGNTATLTISGTQAEDEADYYCQSWALVGSSESNVFGGGTKLTVLG
B4: Ab4997 IgG4_Pro (antibody, V domains shown)
VH: B1 VH with S54N, H56K, T58K
VL: B1 VL
B5: Ab5149 IgG4_Pro (light chain of Ab4999 combined with heavy chain of Ab4997) (antibody, V domains shown)
VH: B1 VH with S54N, H56K, T58K
VL: B2 VL
B6: Ab5007 IgG4_Pro (antibody, V domains shown)
VH: B1 VH with Y53F
VL: B1 VL
B7: Ab5151 IgG4_Pro (light chain of Ab4999 combined with heavy chain of Ab5007) (antibody, V domains shown)
VH: B1 VH with Y53F
VL: B2 VL
B8: Ab5150 IgG4_Pro (light chain of Ab4999 combined with heavy chain of Ab5003) (antibody, V domains shown)
VH: B1 VH with S54K
VL: B2 VL
B9: Ab5003 IgG4_Pro (antibody, V domains shown)
VH: B1 VH with S54K
VL: B1 VL
B10: Ab4996 IgG4_Pro (antibody, V domains shown)
VH: QVQLVESGGGLVQPGGSLRLSCAASGFTFSNHAMHWVRQAPGKGLEWVSAISHPGKFTYYADSVKGRFTISRDNSKNTLYLQMNSLRAEDTAVYYCARHGDGMDYFDFWGQGTLVTVSS
VL: DIELTQPPSVSVAPGQTARISCSGDNIGTKYVYWYQQKPGQAPVLVIYDDNNRPSGIPERFSGSNSGNTATLTISGTQAEDEADYYCQSYDSQTMVFGGGTKLTVLG

Biological target: Labeled peptide representing the N-terminus of PAR-2 (FRET peptide)
Assay: cell-based or functional assay

FRET Peptide Cleavage IC50, < 30 nM:
B1, B2, B3, B4, B5, B6, B7, B8, B9, B10
